The target in experiment [1] is T1, DWnt-5(455-1004) (D. melanogaster, UniProt P28466 455-1004, glycosylated at N484/485, N724 and N952; S868 unmodified (not lipid modified)).
T1 sequence (looked up): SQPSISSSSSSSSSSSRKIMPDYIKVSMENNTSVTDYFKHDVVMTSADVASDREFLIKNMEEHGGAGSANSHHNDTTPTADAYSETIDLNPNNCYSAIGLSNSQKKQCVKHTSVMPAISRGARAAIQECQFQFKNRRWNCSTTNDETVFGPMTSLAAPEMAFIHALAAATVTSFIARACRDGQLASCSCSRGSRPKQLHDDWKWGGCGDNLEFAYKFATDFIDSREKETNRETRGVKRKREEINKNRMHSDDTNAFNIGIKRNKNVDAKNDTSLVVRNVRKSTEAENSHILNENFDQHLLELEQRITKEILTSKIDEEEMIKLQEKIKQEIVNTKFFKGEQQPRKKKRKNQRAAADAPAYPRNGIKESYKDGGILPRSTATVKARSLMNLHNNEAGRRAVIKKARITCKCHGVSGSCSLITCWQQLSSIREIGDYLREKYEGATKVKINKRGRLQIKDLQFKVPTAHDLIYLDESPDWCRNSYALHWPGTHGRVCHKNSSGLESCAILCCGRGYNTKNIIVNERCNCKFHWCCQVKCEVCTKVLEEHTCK
As to the kind of experiment: SPR.

For experiment [2], the target named is T1, DWnt-5(455-1004). As to the kind of experiment: pull-down.

Where a chain is given by its changes, count along the chain named. In names and notes the source's numbering stands.

B1: sDnt (Dnt ECR) (domain or fragment, D. melanogaster)
chain: SEVAAHLNVFLNPVEVMRLLGVSAEVYYVREGHINNYALNFIVPVPANVKDISFTWQSLAGRGLPYSINVVSSDQEVLPRPAINVSHSGEIPTTIQTWSIALKCSGLKAAEVDVTVSLEVVLNRSLNNVTHLVFRRKKICLMNDSAEDLSEDVDDPQLLETVMLPPTGRPLESRGPFEGKPIPNPLLGLDSTRTG
On to B1, for which, in the experiment with DWnt-5(455-1004) [1], the “fold weaker binding than the Drl and Drl-2 ECRs” value was roughly 10 fold.

B2: sDrl242 E40K (domain or fragment, D. melanogaster, UniProt Q27324 21-242, looked up)
chain: HLNIFLNLHEVLRLIGVSAKLYYVREGAINDYALNFAVPVPANISDVTFTWQSLVDHPLPYSINIATSDTEVLPRPILNISRIGDVPVEPQTWGIALKCSGTRNAEVTVTINVEVILDRATNNNTNLIFKRKKICLREEQDSAHEEYDDDDLDLLQTARKGHGGDIHYVDRNDEHVVANGHQAPEKQRPVVTESPVGRGNSGGSKRDFDPMLRENLVPPASG
B2: the “fold reduction of affinity against wild-type sDrl242” value with DWnt-5(455-1004) [1] is roughly 10 fold.

B3: sDrl242 (Drl ECR) (domain or fragment, D. melanogaster, UniProt Q27324 21-242, looked up)
chain: B2 chain with K20E
B3: in the experiment with DWnt-5(455-1004) [1], the affinity, expressed as Kd, was 720 nM.

B4: sDrl242 E126K (domain or fragment, D. melanogaster, UniProt Q27324 21-242, looked up)
chain: B2 chain with K20E, E106K
Take B4: the binding result with DWnt-5(455-1004) [1] is “binds”.

B5: sDrl242 I154E (domain or fragment, D. melanogaster, UniProt Q27324 21-242, looked up)
chain: B2 chain with K20E, I134E
Turning to B5, in the experiment with DWnt-5(455-1004) [1], the binding result is on record as “binds”.

B6: sDrl-2 (Drl-2 ECR) (domain or fragment, D. melanogaster)
chain: GYLNIFISHHEVMKLMGLEADLFYVHEGAINTYAMHFTVPVPADVHELEFSWQSLIAYPLPYAISIEYNNDQEALGTPTLSIPHKGLVPQEIESFLVYLPCTGNASLQMPVNVNMVVRAPPRFNDTRLHFKRNKICAKGISPEPNQSPAPAHAPSQGPARPLESRGPFEGKPIPNPLLGLDSTRTG
Regarding B6, the equilibrium dissociation constant (Kd) (commonly the equilibrium constant for the complex coming apart) in the experiment with DWnt-5(455-1004) [1] was determined as 230 nM.

B7: sDrl183 (Drl WIF domain) (domain or fragment, D. melanogaster, UniProt Q27324 21-183, looked up)
chain: HLNIFLNLHEVLRLIGVSAELYYVREGAINDYALNFAVPVPANISDVTFTWQSLVDHPLPYSINIATSDTEVLPRPILNISRIGDVPVEPQTWGIALKCSGTRNAEVTVTINVEVILDRATNNNTNLIFKRKKICLREEQDSAHEEYDDDDLDLLQTARKGHG
For the molecule B7, in the experiment with DWnt-5(455-1004) [2], the binding result is “binds”.
